Measurements from article PMC4481513, “Structural and Functional Analysis of Human HtrA3 Protease and Its Subdomains” (PLoS ONE, 2015).
Blank lines part the entries; values can stand above or below the molecule they belong to. *1 amine or outer side, *2 acyl side, *3 side chain or, on linkers, in order; H or OH if unused. The star is where a group is joined. Benzoyl(5-NH,2-NO2) = O=C(c1cc(N[*:1])ccc1[N+](=O)[O-])[*:2]; Mca = COc1ccc2c(CC(=O)*)cc(=O)oc2c1

What was measured:
[1] = target: β-casein from bovine milk (bovine); experiment: SEC; Superose 12 HR 10/30, room temperature, 50 mM Na2HPO4/NaH2PO4 pH 8.0, 250 mM NaCl; single proteins, HtrA3 proteins at 3 mg/ml, 50 μl loaded
[2] = target: the molecule itself; experiment: crystal structure; ΔN-HtrA3 S305A, sitting-drop vapor diffusion, 1 M sodium/potassium phosphate buffer pH 5.0, 16°C; three molecules per asymmetric unit; 3.27 Å
[3] = target: ΔN-HtrA3 (residues 130–453–His6), proteolytically active (human) (UniProt P83110)
[4] = target: ΔN-HtrA3-ΔPDZ (residues His6–122–349), proteolytically active (human) (UniProt P83110)
ΔN-HtrA3-ΔPDZ (residues His6–122–349), proteolytically active (human), sequence (P83110 122-349, stated change not applied): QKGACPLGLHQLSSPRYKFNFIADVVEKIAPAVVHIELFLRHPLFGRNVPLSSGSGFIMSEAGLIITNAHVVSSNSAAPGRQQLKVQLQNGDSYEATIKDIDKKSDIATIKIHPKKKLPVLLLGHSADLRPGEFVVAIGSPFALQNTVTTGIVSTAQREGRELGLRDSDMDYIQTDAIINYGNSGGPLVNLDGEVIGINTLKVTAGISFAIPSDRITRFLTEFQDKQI

[5] = target: ΔN-HtrA3S (residues 130–357–His6), proteolytically active (human) (UniProt P83110)

stoichiometry N [1]: 3
Molecule: β-casein from bovine milk (natural protein)

B1: ΔN-HtrA3_(S305A) (residues 130–453–His6), proteolytically inactive N-terminally truncated HtrA3L with protease and PDZ domains (domain or fragment, human, UniProt P83110 130-453, looked up)
chain: LHQLSSPRYKFNFIADVVEKIAPAVVHIELFLRHPLFGRNVPLSSGSGFIMSEAGLIITNAHVVSSNSAAPGRQQLKVQLQNGDSYEATIKDIDKKSDIATIKIHPKKKLPVLLLGHSADLRPGEFVVAIGSPFALQNTVTTGIVSTAQREGRELGLRDSDMDYIQTDAIINYGNAGGPLVNLDGEVIGINTLKVTAGISFAIPSDRITRFLTEFQDKQIKDWKKRFIGIRMRTITPSLVDELKASNPDFPEVSSGIYVQEVAPNSPSQRGGIQDGDIIVKVNGRPLVDSSELQEAVLTESPLLLEVRRGNDDLLFSIAPEVVM
notes: human HtrA3 long isoform (HtrA3L), residues 130-453: serine protease domain and PDZ domain, catalytic serine changed to alanine; Chain A of the structure runs to residue 459, that is into the His tag; also called ΔN-HtrA3-His6; pPG1; source: E. coli BL21(DE3) clpP::Cm r, purified (Ni-NTA; before crystallization also Superdex 200 gel filtration); not shown: His6, C-terminal, kept
stoichiometry N [2]: 3

Km [μM] of cleavage of the peptide Ala(Mca)IRRVSYSF-ANB-NH2 (0.02 to 6 μM), 50 nM enzyme, 30°C, Michaelis-Menten fit [3]: 0.958 µM | Km [μM] of cleavage of the peptide Ala(Mca)IRRVSYSF-ANB-NH2 (0.02 to 6 μM), 50 nM enzyme, 30°C, Michaelis-Menten fit [4]: 0.878 µM | Km [μM] of cleavage of the peptide Ala(Mca)IRRVSYSF-ANB-NH2 (0.02 to 6 μM), 50 nM enzyme, 30°C, Michaelis-Menten fit [5]: 0.74 µM
B2: Fluorescent substrate Ala(Mca)IRRVSYSF–ANB–NH2 (peptide)
peptide: Mca-AIRRVSYSF-{Benzoyl(5-NH,2-NO2)-NH2}
SMILES: CC[C@H](C)[C@H](NC(=O)[C@H](C)NC(=O)Cc1cc(=O)oc2cc(OC)ccc12)C(=O)N[C@@H](CCCNC(=N)N)C(=O)N[C@@H](CCCNC(=N)N)C(=O)N[C@H](C(=O)N[C@@H](CO)C(=O)N[C@@H](Cc1ccc(O)cc1)C(=O)N[C@@H](CO)C(=O)N[C@@H](Cc1ccccc1)C(=O)Nc1ccc([N+](=O)[O-])c(C(N)=O)c1)C(C)C
